Measurements as given in the supplement of paper PMC12764529.
± gives the half width of the 95% confidence interval.

Columns and labels:
[1] = folding stability dG unfold (combined trypsin and chymotrypsin); higher = more stable
Procedure, shortened: (§1)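 Mini-proteins designed to be under 80 residues and free of cysteine were carried in a PA-tagged cDNA display construct and digested with trypsin and with chymotrypsin. Each protease was applied at 11 threefold-diluted concentrations, alongside a no-protease condition, before sequencing. K50 came from Bayesian fitting of the sequencing counts, and unfolding free energy was obtained by comparing it with a sequence-predicted unfolded-state K50 and a shared folded-state K50, for each protease separately or for both together. Designs were retained only if their AlphaFold2 dimer inter-PAE exceeded 15.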

[2] = folding stability dG unfold from chymotrypsin proteolysis; higher = more stable
Procedure, shortened: as §1

[3] = folding stability dG unfold from trypsin proteolysis; higher = more stable
Procedure, shortened: as §1

Sequence	folding stability dG unfold [1] [kcal/mol]	folding stability dG unfold [2] [kcal/mol]	folding stability dG unfold [3] [kcal/mol]
SAGGSPSITVSESSDPATGTRTLTITVPSSAPSATLNIVVSGSGPPVSSKTVTVPPGTTVTITYTTTSAGGS [r16_412_JUSTAS]	2.61 ± 0.056	2.84 ± 0.049	2.2 ± 0.06
SAMKIYTLPDGSRLIVIPDPYSDSLSVLLVTRSPDGTYHVTLIRYHPNGEKETFTRTGDLETAIRELLSSAG [r14_179_TrMRF]	3.67 ± 0.091	3.588 ± 0.028	3.55 ± 0.077
SAGGSAGGSAMIEDPATGRVYELDPSVPTVTVYEKTEGEGGEVVEKGVVEADPANPEKALLESAGGSAGGSA [r18_448_JUSTAS]	0.716 ± 0.069	0.826 ± 0.073	0.45 ± 0.048
SAGGSAGGSAKKKVIVIELPEDMTLEEALALAKALAPPGAEIVIRRDGKLYVIKIEDPEKLSAGGSAGGSAG [r3_50_TrROS_Hall]	2.55 ± 0.17	2.82 ± 0.084	2.24 ± 0.11
SAEEVTVKLELEIKIKVSEEEAKALAEELARALKEAGEVKITVEPVEKDEDGYYRIRVTIEVKIKKEDLSAG [r14_413_TrROS_Hall]	4.02 ± 0.095	4.24 ± 0.11	3.57 ± 0.12
SAGGEEGKPKWVEMWIFIPKEILEDIKQGEPLTVKQIAQKIGFPPNIEVKIIEREGDYIYVRITIPVSAGGS [r16_679_TrROS]	4.66 ± 0.27	4.66 ± 0.11	4.53 ± 0.25
SAGGMPTYTITITSPETGELKELPPNISQTFDPNNVTYYTFTSEEEAKEAIKLIAPQNGWKVTITSSSAGGS [r8_131_JUSTAS]	0.89 ± 0.35	-0.14 ± 0.52	1.37 ± 0.22
SAGGSAGGSAGGSMEFEVAEVFPDGWVVLRFPDGSRYRARLALDPETGEAKLLSLEPLPSAGGSAGGSAGGS [r4_247_TrMRF]	4.15 ± 0.2	4.41 ± 0.071	3.27 ± 0.077
SAGGSAGGSAGGPEAVIEELKKAGYTPKVDPNSSVVTVTYKNPDGTILTKTINVPPSLLSAGGSAGGSAGGS [r10_1173_JUSTAS]	1.16 ± 0.26	1.59 ± 0.2	-0.269 ± 0.25
SAGGEPVLVPVKGTFENPELGVKVEVEAYFFPEFDFALVNVKVTPYSPDGKPLEVEGTFVVSVSELLKSAGG [r13_807_TrMRF]	2.75 ± 0.12	3.16 ± 0.086	2.02 ± 0.082
SAGGKEVYKVEIEVRLVKVPPGATVTLEEENGELTLTVTAPPGEEVLVIRIKVEKVKLPKPEKKKKKKSAGG [r13_804_TrROS_Hall]	2.79 ± 0.45	3.45 ± 0.18	2.22 ± 0.27
SAGMKETLKVKIKVKLSEEQREKLKKALEELGATVEVDEETGEVTVEVSAEQVEALKKIPGVEEIEVESAGG [r19_212_TrROS_Hall]	2.76 ± 0.14	2.61 ± 0.24	3.22 ± 0.18
SAGGSAGGSAMETVYIPKEEVEKDPEKLEEIKEKLKKELEEKGKKVEFKEDPNGGYTITVESAGGSAGGSAG [r3_75_JUSTAS]	0.663 ± 0.13	0.855 ± 0.029	0.343 ± 0.054
SAGGSITLPPVELPNGEKVTVTIEITPVPGAPPEERYRVTVTRTNPKTGTTETTELEVTRKGSVVTLESAGG [r13_208_JUSTAS]	1.88 ± 0.099	1.5 ± 0.022	2.16 ± 0.059
SAGGSAGGSAGKVEITVEKNPETGLYTVRIKTEDGKEIEITVPKNMTLEELKKLAEELLKSAGGSAGGSAGG [r17_161_TrROS_Hall]	4.42 ± 0.1	4.42 ± 0.11	4.43 ± 0.22
SAGGVTIEVDPGTGKVTITFPDGSSATIEVPPDERAVLFVKEGEGEVEVALVREDDPEALEKALELGSAGGS [r16_623_TrMRF]	1.05 ± 0.2	1.34 ± 0.058	0.811 ± 0.059

Sequence	folding stability dG unfold [1] [kcal/mol]	folding stability dG unfold [2] [kcal/mol]	folding stability dG unfold [3] [kcal/mol]
SDPNGKPKKRRFYVMITVPHKMKPERDPDGKMEMEHKMPTVMFPFPADDLDDLRDILEPFGISVSLMPLDSA [r9_1209_TrROS]	1.94 ± 0.093	2.14 ± 0.066	1.6 ± 0.057
SAGGKIPISPEALKALDEALKNGDKGDTIPIQTPDGHYIVITPNGRMRFHNGNEREFPIGKIKAIIWSAGGS [r16_664_TrROS]	0.156 ± 0.12	0.241 ± 0.2	-0.149 ± 0.14
SDLEAVLAAIDAVPPGTVVRIRLTLPDGVPLEITFDAGKEEIKALLEELVKEHPDVPIGIEIEVFPPEELSA [r9_37_TrMRF]	3.61 ± 0.081	3.71 ± 0.093	3.38 ± 0.1
SAGGSAGGPIKIKAKIFDPNGQPQEHEGEIDNPNGEPYKIKIDIFVLPDPDDEPNLVINVEIEPSAGGSAGG [r6_335_TrROS]	2.77 ± 0.13	3.33 ± 0.17	1.38 ± 0.11
SAGGVITAVESTTTPLPNGTVLVTLTLKEGGETLQVTVTVSPDGVTVTTPSGKTSTIAPEELASLLPSAGGS [r16_593_JUSTAS]	1.34 ± 0.076	1.39 ± 0.025	1.31 ± 0.025
SAGGSAGGSAIKAPPNSKIIKIEVKPLPNGDLLVEITIIDVPPDDSIGSGKYKILIKLEKGGSAGGSAGGSA [r18_273_TrMRF]	3.02 ± 0.26	3.1 ± 0.16	2.81 ± 0.3
SAGGSAGGSAKKTLTVTVKAEPSEGAPAIAKEVAEKLGLPDAKVLSISYDPETGELTITFEYSAGGSAGGSA [r18_481_TrMRF]	4.61 ± 0.14	4.56 ± 0.097	4.21 ± 0.2
SAGKIKIPPGQEIWIIVNVEWQPDPDNGEPRYTVTVMKIKIKADPNGGLKIESIETKIVPAEDLKDNGLSAG [r5_340_TrROS]	3.06 ± 0.14	3.6 ± 0.078	1.84 ± 0.036
SAGMTVKTEVHTTTLPETGLVRTEETVTYPDGSVIRRTGDSNPETGEVTTTVTTPDGTLLATETTTITPSAG [r14_524_JUSTAS]	0.184 ± 0.048	0.426 ± 0.033	-0.585 ± 0.072
SPPITIEIEYERNPDNGMFPLKVKAWNPDGEPIGEREIPFKGSPEEMRERAMKEAKELADKNGWPIEIEWSA [r9_31_TrROS]	0.331 ± 0.19	0.637 ± 0.18	-0.436 ± 0.17
SAGGSALEVKPGAGNTLTVYTPLPEDIPISEVIEELKKKYPNITAETDETSDGVAVVTLTLPPGLGSAGGSA [r15_1047_JUSTAS]	0.724 ± 0.12	0.401 ± 0.25	0.984 ± 0.051
SMPEVETVTLTLTLVDEETGEEVTIEITATRVDGYLVLTMKVEVTVNGKKYTIEMTIVVKPGEEITLTLESA [r9_1015_TrROS_Hall]	> 6	5.85 ± 0.37	3.99 ± 0.33
SAGGSAGGSAGDFKIKDVEVERPPGRHRVEIRLPGNKKPIKIDNVPTPDDAEDAVKELLKSAGGSAGGSAGG [r11_183_TrROS]	0.683 ± 0.1	0.975 ± 0.056	0.0405 ± 0.073
SAGGSAGGSAGTIRIKTKDGKTIEIELEGLSDEELENPEVLAEIKKALEDAGFEIVEVEPSAGGSAGGSAGG [r11_467_TrROS_Hall]	2.09 ± 0.078	2.04 ± 0.054	2.19 ± 0.061
SVTRDPDGKITVDVDVRRTPDGFYYVEVKLQLKDGKPIFPVPAPVKNPEDGVKRMKEFAETFAKEFLKKWSA [r9_739_TrROS]	2.04 ± 0.15	2.42 ± 0.087	1.35 ± 0.058
